Patent US20260102475A1

B1: imlifidase (IdeS, Immunoglobulin G-degrading enzyme of S. pyogenes) (protein)
chain: DSFSANQEIRYSEVTPYHVTSVWTKGVTPPANFTQGEDVFHAPYVANQGWYDITKTFNGKDDLLCGAATAGNMLHWWFDQNKDQIKRYLEEHPEKQKINFNGEQMFDVKEAIDTKNHQLDSKLFEYFKEKAFPYLSTKHLGVFPDHVIDMFINGYRLSLTNHGPTPVKEGSKDPRGGIFDAVFTRGDQSKLLTSRHDFKEKNLKEISDLIKKELTEGKALGLSHTYANVRINHVINLWGADFDSNGNLKAIYVTDSDSNASIGMKKYFVGVNSAGKVAISAKEIKEDNIGAQVLGLFTLSTGQDSWNQTN
B2: N240 (IdeS/IdeZ hybrid IgG cysteine protease) (protein)
chain: DDYQRNATEAYAKEVPHQITSVWTKGVTPPEQFTQGEDVIHAPYLAHQGWYDITKAFNGKDDLLCGAATAGNMLHWWFDQNKTEIEAYLSKHPEKQKIIFRNQELFDLKAAIDTKDSQTNSQLFNYFRDKAFPNLSARQLGVMPDLVLDMFINGYYLNVFKTQSTDVNRPYQDKDKRGGIFDAVFTRGNQTTLLTARHDLKNKGLNDISTIIKQELTEGRALALSHTYANVSISHVINLWGADFNAEGNLEAIYVTDSDANASIGMKKYFVGINAHGHVAISAKKIEGENIGAQVLGLFTLSSGKDIWQKLS

Key:
[1] = target: IgG in human serum (serum pool n=100; pre-dose patient serum)
[2] = target: polyclonal IgG (substrate spiked into post-dose sera)

| Protein | cleavage of IgG in serum, SDS-PAGE [1] | degradation of substrate spiked into sera collected after imlifidase dosing [2] | cleavage of IgG in pre-dose patient serum, SDS-PAGE and SAB-HLA [1] |
| --- | --- | --- | --- |
| B1 | a concentration of around 2 µg/mL imlifidase was needed to start the cleavage in serum and concentrations below this did not result in any cleavage despite prolonged incubation | When polyclonal IgG was used as substrate, no degradation was seen in samples collected from 48 hours after dosing and forward |  |
| B2 |  |  | N240 showed similar cleavage properties to imlifidase |
